Measurements: US20240132578A1

Key:
Experiment in all cases: cell-based or functional assay
[1] = target: HIV-1 Env of pseudovirus isolate MGRM-C-019 (clade C) (HIV-1)
[2] = target: HIV-1 Env of isolate MGRM-D-014 (pseudovirus) (HIV-1)
[3] = target: HIV-1 Env of isolate 92UG005 (pseudovirus) (HIV-1)
[4] = target: HIV-1 Env of isolate MGRM-AG-011 (subtype AG) (HIV-1)
[5] = target: HIV-1 Env of isolate MGRM-A-007 (subtype A) (HIV-1)
[6] = target: HIV-1 Env of isolate JRFL (HIV-1)
[7] = target: HIV-1 Env of isolate MGRM-F1-023 (HIV-1)
[8] = target: HIV-1 Env of isolate MGRM-F1-021 (HIV-1)
[9] = target: HIV-1 JR-CSF Env F468A (HIV-1 (isolate JR-CSF)) (UniProt P20871)
[10] = target: HIV-1 Env of isolate MGRM-A-009 (subtype A) (HIV-1)
[11] = target: HIV-1 Env of isolate MGRM-Chronic-B-004 (HIV-1)
[12] = target: HIV-1 Env of isolate 92RW008 (pseudovirus) (HIV-1)
[13] = target: HIV-1 Env of isolate MGRM-AE-001 (subtype AE) (HIV-1)
[14] = target: HIV-1 Env of isolate MGRM-AE-006 (subtype AE) (HIV-1)
[15] = target: HIV-1 Env of isolate MGRM-C-020 (subtype C), on pseudovirus (HIV-1)
[16] = target: HIV-1 Env of isolate MGRM-G-001 (subtype G) (HIV-1)
[17] = target: HIV-1 Env of isolate MGRM-AE-001 (pseudovirus) (HIV-1)
[18] = target: HIV-1 Env of isolate MGRM-C-028 (subtype C), on pseudovirus (HIV-1)
[19] = target: HIV-1 Env of isolate MGRM-G-004 (subtype G) (HIV-1)
[20] = target: HIV-1 Env of isolate MG RM-A-006 (pseudovirus) (HIV-1)
[21] = target: HIV-1 Env of pseudovirus isolate 6535.3 (clade B) (HIV-1)
[22] = target: HIV-1 Env of isolate MGRM-C-024 (subtype C), on pseudovirus (HIV-1)
[23] = target: HIV-1 Env of isolate MGRM-G-014 (subtype G) (HIV-1)
[24] = target: HIV-1 Env of pseudovirus MGRM-F1-013 (HIV-1)
[25] = target: HIV-1 Env of pseudovirus MGRM-D-021 (HIV-1)
[26] = target: HIV-1 Env of pseudovirus MGRM-F1-017 (HIV-1)
[27] = target: HIV-1 Env of pseudovirus MGRM-D-014 (HIV-1)
[28] = target: HIV-1 envelope glycoprotein (Env) of isolate MG RM-AG-012 (HIV-1)
[29] = target: HIV-1 Env of pseudovirus MGRM-D-028 (HIV-1)

Chain of PGT-145 (4995_P16) (antibody) (VH): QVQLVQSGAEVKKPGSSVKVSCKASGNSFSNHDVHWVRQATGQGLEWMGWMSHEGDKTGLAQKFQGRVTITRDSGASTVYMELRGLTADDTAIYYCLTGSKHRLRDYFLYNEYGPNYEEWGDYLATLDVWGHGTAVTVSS
Chain of PGT-145 (4995_P16) (antibody) (VL): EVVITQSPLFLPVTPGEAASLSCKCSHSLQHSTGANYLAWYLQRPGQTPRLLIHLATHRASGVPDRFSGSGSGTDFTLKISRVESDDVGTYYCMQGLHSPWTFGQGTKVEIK
Chain of PGT-142 (4995_E20) (antibody) (VH): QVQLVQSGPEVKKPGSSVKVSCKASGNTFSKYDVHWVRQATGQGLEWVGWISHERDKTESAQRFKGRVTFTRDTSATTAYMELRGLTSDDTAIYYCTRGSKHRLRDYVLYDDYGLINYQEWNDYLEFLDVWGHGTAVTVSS
Chain of PGT-142 (4995_E20) (antibody) (VL): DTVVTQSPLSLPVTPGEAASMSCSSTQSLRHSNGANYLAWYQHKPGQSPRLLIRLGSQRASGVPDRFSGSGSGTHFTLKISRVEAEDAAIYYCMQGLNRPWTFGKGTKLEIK
Chain of PGT-141 (4964_G22; 4993_K13) (antibody) (VH): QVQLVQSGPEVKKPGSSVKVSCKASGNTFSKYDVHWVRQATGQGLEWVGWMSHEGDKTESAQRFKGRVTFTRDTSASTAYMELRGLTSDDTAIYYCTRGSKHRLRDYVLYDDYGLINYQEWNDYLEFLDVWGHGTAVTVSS

Substance | IC50, pseudovirus neutralization [1] [µg/mL] | IC50 (µg/mL), pseudovirus neutralization [2] [µg/mL] | IC50 (µg/mL), pseudovirus neutralization [3] [µg/mL] | IC50, pseudovirus neutralization [4] [µg/mL] | IC50, pseudovirus neutralization [5] [µg/mL] | IC50 (µg/mL), pseudovirus neutralization [6] [µg/mL] | IC50 (µg/mL), pseudovirus neutralization [7] [µg/mL] | IC50 (µg/mL), pseudovirus neutralization [8] [µg/mL] | IC50, pseudovirus neutralization [10] [µg/mL] | IC50 (µg/mL), pseudovirus neutralization [11] [µg/mL] | IC50 (µg/mL), pseudovirus neutralization [12] [µg/mL] | IC50, pseudovirus neutralization [13] [µg/mL] | IC50, pseudovirus neutralization [14] [µg/mL] | IC50, single-round pseudovirus neutralization [15] [µg/mL] | IC50 (µg/mL), pseudovirus neutralization [16] [µg/mL] | IC50 (µg/mL), single-round pseudovirus neutralization [17] [µg/mL] | IC50, single-round pseudovirus neutralization [18] [µg/mL] | IC50 (µg/mL), pseudovirus neutralization [19] [µg/mL] | IC50 (µg/mL), single-round pseudovirus neutralization [20] [µg/mL] | IC50 (µg/mL), pseudovirus neutralization [23] [µg/mL] | other results
5114_A19 (PGT-128) (antibody) | 0.01 | 0.013 | 0.018 | 3.93 | > 50 | 0.007 | 0.007 | > 50 | 0.005 | 0.009 | 0.003 | 0.069 | 0.044 | – | – | – | – | – | – | – | Fold IC50 increase relative to wild-type (pseudovirus neutralization) [9]: 0.5 fold
4993_K13 (PGT-141) (antibody) | – | – | – | – | – | – | – | – | – | – | – | – | – | 1.34 | 0.392 | > 50 | 13.8 | > 50 | > 50 | 0.222 | IC50, pseudovirus neutralization [21]: > 50 µg/mL; IC50, single-round pseudovirus neutralization [22]: 0.101 µg/mL
5329_C19 (PGT-136) (antibody) | 20.1 | > 50 | > 50 | > 50 | > 50 | > 50 | > 50 | > 50 | > 50 | > 50 | > 50 | > 50 | > 50 | – | – | – | – | – | – | – | –
4995_P16 (PGT-145) (antibody) | – | – | – | – | – | – | – | – | – | – | – | – | – | 0.712 | 0.028 | 20.9 | 0.099 | > 50 | > 50 | 0.144 | IC50, pseudovirus neutralization [21]: > 50 µg/mL; IC50, single-round pseudovirus neutralization [22]: 0.174 µg/mL
PGT-141 (4964_G22; 4993_K13) (antibody) | – | – | – | – | – | – | – | – | – | – | – | – | – | – | – | – | – | – | – | – | IC50, pseudovirus neutralization [24]: 0.043 µg/mL; IC50, pseudovirus neutralization [25]: > 50 µg/mL; IC50, pseudovirus neutralization [26]: 30.8 µg/mL; IC50, pseudovirus neutralization [27]: 0.01 µg/mL; IC50 [28]: > 50 µg/mL; IC50, pseudovirus neutralization [29]: < 50 µg/mL
5136_H01 (PGT-131) (antibody) | 0.021 | 0.516 | 0.854 | > 50 | > 50 | 0.454 | > 50 | > 50 | 0.035 | 0.04 | 1.01 | 4.8 | 0.026 | – | – | – | – | – | – | – | Fold IC50 increase relative to wild-type (pseudovirus neutralization) [9]: 1.6 fold
PGT-145 (4995_P16) (antibody) | – | – | – | – | – | – | – | – | – | – | – | – | – | – | – | – | – | – | – | – | IC50, pseudovirus neutralization [24]: 0.402 µg/mL; IC50, pseudovirus neutralization [25]: > 50 µg/mL; IC50, pseudovirus neutralization [26]: 0.286 µg/mL; IC50, pseudovirus neutralization [27]: 2.51 µg/mL; IC50 [28]: > 50 µg/mL; IC50, pseudovirus neutralization [29]: 0.721 µg/mL
PGV04 (antibody) | – | – | – | – | – | – | 0.171 | 0.031 | – | – | – | – | – | – | > 50 | – | – | > 50 | – | 0.056 | IC50 (µg/mL), pseudovirus neutralization [17]: 0.063 µg/mL
PGT-142 (4995_E20) (antibody) | – | – | – | – | – | – | – | – | – | – | – | – | – | – | – | – | – | – | – | – | IC50, pseudovirus neutralization [24]: 0.023 µg/mL; IC50, pseudovirus neutralization [25]: > 50 µg/mL; IC50, pseudovirus neutralization [26]: 23.5 µg/mL; IC50, pseudovirus neutralization [27]: 0.005 µg/mL; IC50 [28]: > 50 µg/mL; IC50, pseudovirus neutralization [29]: > 50 µg/mL
4995_E20 (PGT-142) (antibody) | – | – | – | – | – | – | – | – | – | – | – | – | – | 0.446 | 0.362 | > 50 | 2.12 | > 50 | > 50 | 0.076 | IC50, pseudovirus neutralization [21]: > 50 µg/mL; IC50, single-round pseudovirus neutralization [22]: 0.03 µg/mL
